The results in this text go back to article PMC7112428 (International Journal of Biological Macromolecules, 2018).

This data set concerns the molecule itself. Briefly: SEC. Background: In gel filtration, larger molecules generally elute earlier.

B1: recombinant porcine aminopeptidase N ectodomain (residues 63-963) (domain or fragment, UniProt P15145 63-963, looked up)
chain: QSKPWNRYRLPTTLLPDSYNVTLRPYLTPNADGLYIFKGKSIVRLLCQEPTDVIIIHSKKLNYTTQGHMVVLRGVGDSQVPEIDRTELVELTEYLVVHLKGSLQPGHMYEMESEFQGELADDLAGFYRSEYMEGNVKKVLATTQMQSTDARKSFPCFDEPAMKATFNITLIHPNNLTALSNMPPKGSSTPLAEDPNWSVTEFETTPVMSTYLLAYIVSEFQSVNETAQNGVLIRIWARPNAIAEGHGMYALNVTGPILNFFANHYNTSYPLPKSDQIALPDFNAGAMENWGLVTYRENALLFDPQSSSISNKERVVTVIAHELAHQWFGNLVTLAWWNDLWLNEGFASYVEYLGADHAEPTWNLKDLIVPGDVYRVMAVDALASSHPLTTPAEEVNTPAQISEMFDSISYSKGASVIRMLSNFLTEDLFKEGLASYLHAFAYQNTTYLDLWEHLQKAVDAQTSIRLPDTVRAIMDRWTLQMGFPVITVDTKTGNISQKHFLLDSESNVTRSSAFDYLWIVPISSIKNGVMQDHYWLRDVSQAQNDLFKTASDDWVLLNVNVTGYFQVNYDEDNWRMIQHQLQTNLSVIPVINRAQVIYDSFNLATAHMVPVTLALDNTLFLNGEKEYMPWQAALSSLSYFSLMFDRSEVYGPMKKYLRKQVEPLFQHFETLTKNWTERPENLMDQYSEINAISTACSNGLPQCENLAKTLFDQWMSDPENNPIHPNLRSTIYCNAIAQGGQDQWDFAWGQLQQAQLVNEADKLRSALACSNEVWLLNRYLGYTLNPDLIRKQDATSTINSIASNVIGQPLAWDFVQSNWKKLFQDYGGGSFSFSNLIQGVTRRFSSEFELQQLEQFKKNNMDVGFGSGTRALEQALEKTKANIKWVKENKEVVLNWFIEHS
For B1, the stoichiometry N (as a rule, the number of molecules, sites or subunits per partner or assembly) amounted to 2.
